Drawing on patent US20170002346A1, this text covers FITC signal against unlabeled cells (orders of magnitude) for one substance.

The assay addresses V5 epitope tagged Sag1p fragment fusion displayed on the cell surface of Pichia pastoris (vectors without insert, s1-V5-SAG1 constructs) (S. cerevisiae) (UniProt P20840). Briefly: flow cytometry, FITC anti-V5 staining of plate-grown SuperMan5 cells with GAP and UP promoter constructs (5 isolates each). In general terms: In flow cytometry, cells or beads pass a laser one at a time.
Sequence of UniProt P20840 (P20840 331-650): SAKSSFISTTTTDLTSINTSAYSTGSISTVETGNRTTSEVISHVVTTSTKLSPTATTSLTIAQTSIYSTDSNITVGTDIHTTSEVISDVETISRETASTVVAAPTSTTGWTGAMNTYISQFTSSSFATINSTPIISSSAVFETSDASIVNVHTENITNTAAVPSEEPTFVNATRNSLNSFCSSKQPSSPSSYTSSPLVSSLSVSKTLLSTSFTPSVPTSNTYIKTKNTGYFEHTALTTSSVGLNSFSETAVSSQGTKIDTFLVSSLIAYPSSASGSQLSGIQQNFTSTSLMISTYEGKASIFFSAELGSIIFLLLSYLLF

“FITC-labeled anti-V5 (Abcam, V5-tag-antibody-FITC-ab1209)” yielded an FITC signal against unlabeled cells (orders of magnitude) of 2.
